Results reported in PMC4474781 (Environmental microbiology, 2015).

Target: T1, oxidoreductase FAD/NAD(P)-binding subunit (Dred_1685), His6-tagged, co-expressed with Dred_1686 (Desulfotomaculum reducens MI-1, UniProt A4J559 1-262)
T1 sequence (looked up): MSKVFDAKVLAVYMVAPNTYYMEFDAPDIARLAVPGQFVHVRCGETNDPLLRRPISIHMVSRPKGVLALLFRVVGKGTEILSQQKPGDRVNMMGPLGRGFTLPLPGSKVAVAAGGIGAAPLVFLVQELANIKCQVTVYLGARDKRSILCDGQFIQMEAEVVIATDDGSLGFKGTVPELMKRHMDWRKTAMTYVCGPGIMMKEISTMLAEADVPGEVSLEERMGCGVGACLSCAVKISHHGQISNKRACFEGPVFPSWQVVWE
Assay: pull-down

stoichiometry N: 1
B1: dihydroorotate dehydrogenase 1B (Dred_1686), untagged, co-expressed with His6-Dred_1685 (enzyme, Desulfotomaculum reducens MI-1, UniProt A4J560 1-304, looked up)
chain: MKLNLAVKIGQLDMINPVTTASGTFGYGQEYSPYVDLNQLGAIVVKGTTLEPREGNPTPRLVETPSGILNSIGLQNSGVDYLLEHYVPFFKKLQTNVIVNISGNTAEEYGQLAARLDEADGIAALEVNISCPNVKKGGMAFGGDFRTAAEVTKVVKNSTALPVIVKLSPNVTDIAEIARAVEGAGADGLSVINTLLGMAIDVRKRKPVLGNTMGGLSGPAVKPVALRAVWQVYKAVHIPIIGMGGIMNATDALEFILAGAQAVSVGTANFVNPYATKEIIQGMEKYLMENGIGDINELVGAAHL
